Reference: publication PMC5081055, “Molecular basis of classic galactosemia from the structure of human galactose 1-phosphate uridylyltransferase” (Human Molecular Genetics, 2016)

Experiments:
[1] = molecular target: the molecule itself; test: crystal structure; hGALT 20 mg/ml pre-incubated with 5 mM UDP-Glc; vapour diffusion at 20 °C, 0.2 M ammonium sulphate, 30% PEG 8000; two chains in the asymmetric unit; dimer interactions analysed with PISA
[2] = molecular target: the molecule itself; test: small angle X-ray scattering (SAXS); HPLC-SAXS at 10 mg/ml in 10 mM HEPES pH 7.5, 150 mM NaCl, 0.5 mM TCEP; ab initio envelopes by GASBOR

Protein | stoichiometry N [1] | stoichiometry N [2]
uridylylated human galactose 1-phosphate uridylyltransferase (UMP-hGALT) (enzyme, UniProt P07902 1-379, looked up, UMP covalently bound to His186 (uridylylated), human galactose 1-phosphate uridylyltransferase (GALT, EC 2.7.7.12), full length, from a cDNA clone with the p.Asn314Asp polymorphism; Crystallised after pre-incubation with 5 mM UDP-Glc; for SAXS made by overnight incubation with 2 mM UDP-glucose; also called UMP-GALT; uridylylated hGALT; source: incubated with UDP-glucose; not shown: His6, N-terminal, cleaved) MSRSGTDPQQRQQASEADAAAATFRANDHQHIRYNPLQDEWVLVSAHRMKRPWQGQVEPQLLKTVPRHDPLNPLCPGAIRANGEVNPQYDSTFLFDNDFPALQPDAPSPGPSDHPLFQAKSARGVCKVMCFHPWSDVTLPLMSVPEIRAVVDAWASVTEELGAQYPWVQIFENKGAMMGCSNPHPHCQVWASSFLPDIAQREERSQQAYKSQHGEPLLMEYSRQELLRKERLVLTSEHWLVLVPFWATWPYQTLLLPRRHVRRLPELTPAERDDLASIMKKLLTKYDNLFETSFPYSMGWHGAPTGSEAGANWDHWQLHAHYYPPLLRSATVRKFMVGYEMLAQAQRDLTPEQAAERLRALPEVHYHLGQKDRETATIA | 2 | 
human galactose 1-phosphate uridylyltransferase variant p.Gln188Arg, hGALT(p.Q188R) (enzyme, UniProt P07902 1-379, looked up, As purified only the apo enzyme was seen by mass spectrometry; not shown: His6, N-terminal, cleaved) MSRSGTDPQQRQQASEADAAAATFRANDHQHIRYNPLQDEWVLVSAHRMKRPWQGQVEPQLLKTVPRHDPLNPLCPGAIRANGEVNPQYDSTFLFDNDFPALQPDAPSPGPSDHPLFQAKSARGVCKVMCFHPWSDVTLPLMSVPEIRAVVDAWASVTEELGAQYPWVQIFENKGAMMGCSNPHPHCRVWASSFLPDIAQREERSQQAYKSQHGEPLLMEYSRQELLRKERLVLTSEHWLVLVPFWATWPYQTLLLPRRHVRRLPELTPAERDDLASIMKKLLTKYDNLFETSFPYSMGWHGAPTGSEAGANWDHWQLHAHYYPPLLRSATVRKFMVGYEMLAQAQRDLTPEQAAERLRALPEVHYHLGQKDRETATIA |  | 2
apo human galactose 1-phosphate uridylyltransferase (apo-hGALT) (enzyme, UniProt P07902 1-379, looked up, human galactose 1-phosphate uridylyltransferase (GALT, EC 2.7.7.12), full length, from a cDNA clone with the p.Asn314Asp polymorphism; De-uridylylated form made by overnight incubation with 2 mM glucose 1-phosphate; source: incubated with glucose 1-phosphate; not shown: His6, N-terminal, cleaved) MSRSGTDPQQRQQASEADAAAATFRANDHQHIRYNPLQDEWVLVSAHRMKRPWQGQVEPQLLKTVPRHDPLNPLCPGAIRANGEVNPQYDSTFLFDNDFPALQPDAPSPGPSDHPLFQAKSARGVCKVMCFHPWSDVTLPLMSVPEIRAVVDAWASVTEELGAQYPWVQIFENKGAMMGCSNPHPHCQVWASSFLPDIAQREERSQQAYKSQHGEPLLMEYSRQELLRKERLVLTSEHWLVLVPFWATWPYQTLLLPRRHVRRLPELTPAERDDLASIMKKLLTKYDNLFETSFPYSMGWHGAPTGSEAGANWDHWQLHAHYYPPLLRSATVRKFMVGYEMLAQAQRDLTPEQAAERLRALPEVHYHLGQKDRETATIA |  | 2
